The values that follow come from patent US20080167219.

In the data set the target is purified human factor X (UniProt P00742).
Sequence of UniProt P00742 (P00742 whole entry, looked up): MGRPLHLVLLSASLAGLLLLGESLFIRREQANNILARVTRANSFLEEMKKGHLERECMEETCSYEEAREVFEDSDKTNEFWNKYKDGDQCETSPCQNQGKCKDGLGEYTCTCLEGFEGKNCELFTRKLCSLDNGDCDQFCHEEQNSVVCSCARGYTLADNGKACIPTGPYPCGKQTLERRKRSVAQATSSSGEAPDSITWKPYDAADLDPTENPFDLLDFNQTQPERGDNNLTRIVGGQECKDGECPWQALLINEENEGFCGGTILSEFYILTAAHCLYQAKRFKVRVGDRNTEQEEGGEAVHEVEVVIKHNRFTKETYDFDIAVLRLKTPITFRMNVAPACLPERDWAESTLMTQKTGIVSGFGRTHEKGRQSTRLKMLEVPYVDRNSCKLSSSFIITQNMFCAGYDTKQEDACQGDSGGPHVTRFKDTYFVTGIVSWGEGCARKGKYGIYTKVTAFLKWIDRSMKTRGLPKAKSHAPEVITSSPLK

In the case of “recombinant human factor IX IX-1, single alanine replacement at residue 86”, the KM for factor X, with 0.4 nM FVIIIa is 0.0554 µM; the KM for factor X, without FVIIIa turned out to be 0.532 µM; the Kcat, with 0.4 nM FVIIIa was found to be 5.09 s⁻¹; the Kcat, without FVIIIa came to 0.000225 s⁻¹. In addition, the Vmax of factor Xa generation, with 0.4 nM FVIIIa came to 15.1 nM FXa/min; the Vmax of factor Xa generation, without FVIIIa was 0.14 nM FXa/min; the kcat/KM, with 0.4 nM FVIIIa worked out at 9.3e+07 M⁻¹ s⁻¹; the kcat/KM, without FVIIIa was 429 M⁻¹ s⁻¹.
With “recombinant wild type human factor IX (IX-7)”, the KM for factor X, with 0.4 nM FVIIIa is 0.054 µM; the KM for factor X, without FVIIIa worked out at 0.757 µM; the Kcat, with 0.4 nM FVIIIa worked out at 14.2 s⁻¹; the Kcat, without FVIIIa was 0.000262 s⁻¹. Moreover, the Vmax of factor Xa generation, with 0.4 nM FVIIIa amounted to 27.8 nM FXa/min; the Vmax of factor Xa generation, without FVIIIa worked out at 0.16 nM FXa/min; the kcat/KM, with 0.4 nM FVIIIa was 2.64e+08 M⁻¹ s⁻¹; the kcat/KM, without FVIIIa is 353 M⁻¹ s⁻¹.
